Measured values as given in the DeepSol protein solubility set.

Assay: soluble on expression in E. coli; label from the status in PepcDB or PDB records

Sequence | soluble on expression in E. coli
MSLERIRDLTSVQGVRQNSLIGYGLVVGLDGTGDQTTQTPFTTQTLNNMLSQLGITVPTGTNMQLKNVAAVMVTASLPPFGRQGQTIDVVVSSMGNAKSLRGGTLLMTPLKGVDSQVYALAQGNILVGGAGASAGGSSVQVNQLNGGRITNGAVIERELPSQFGVGNTLNLQLNDEDFSMAQQIADTINRVRGYGSATALDARTIQVRVPSGNSSQVRFLADIQNMQVNVTPQDAKVVINSRTGSVVMNREVTLDSCAIAQGNLSVTVNRQANVSQPDTPFGGGQTVVTPQTQIDLRQSGGSLQSVRSSASLNNVVRALNALGATPMDLMSILQSMQSAGCLRAKLEIIEGHHHHHH | soluble
AYKVTLKTPDGDITFDVEPGERLIDIGSEKADLPLSCQAGACSTCLGKIVSGTVDQSEGSFLDDEQIEQGYVLTCIAIPESDVVIETHKEDEL | soluble
MNSTQSRRVGLYGTGRAAAQLVGAIEASPHTLTTAIVFFDEQAGQDIGTLTGGRATGITATTDLEGAIRSGDFDVLAYAGLKGEVLHRAMELCADSGVDLVHACFVHPRVKLDPEMYSRLQKRAEETGARIVGTGMLPGFWLDVLPALLSSALPAPVSIIGESRSDITAWGRGVLADEMGLGTLADGQPGPVGGVLHESAEMIADILGLTGYESKVYGGYVTAHAATEVAGIQISPGDRVGFDEAATVVHDGRERVRIAWKGLPKGSFEGYERSLTVTAIGGDGSECTLSITPALDPYPGTAARIVHAVGALGALPGGQHTPVQLGI | not soluble
MSSNNAGESDGTGPALPTVWPGNAYPLGATYDGAGTNFSLFSEIAEKVELCLIDEDGVESRIPLDEVDGYVWHAYLPNITPGQRYGFRVHGPFDPAAGHRCDPSKLLLDPYGKSFHGDFTFGQALYSYDVNAVDPDSTPPMVDSLGHTMTSVVINPFFDWAYDRSPRTPYHETVIYEAHVKGMTQTHPSIPPELRGTYAGLAHPVIIDHLNELNVTAVELMPVHQFLHDSRLLDLGLRNYWGYNTFGFFAPHHQYASTRQAGSAVAEFKTMVRSLHEAGIEVILDVVYNHTAEGNHLGPTINFRGIDNTAYYRLMDHDLRFYKDFTGTGNSLNARHPHTLQLIMDSLRYWVIEMHVDGFRFDLASTLARELHDVDRLSAFFDLVQQDPVVSQVKLIAEPWDVGEGGYQVGNFPGLWTEWNGKYRDTVRDYWRGEPATLGEFASRLTGSSDLYEATGRRPSASINFVTAHDGFTLNDLVSYNDKHNEANGENNRDGESYNRSWNCGVEGPTDDPDILALRARQMRNMWATLMVSQGTPMIAHGDEIGRTQYGNNNVYCQDSELSWMDWSLVDKNADLLAFARKATTLRKNHKVFRRRRFFEGEPIRSGDEVRDIAWLTPSGREMTHEDWGRGFDRCVAVFLNGEAITAPDARGERVVDDSFLLCFNAHDHDVEFVMPHDGYAQQWTGELDTNDPVGDIDLTVTATDTFSVPARSLLVLRKTL | not soluble
MDFKQRHTWLKIASCKSISAKKRASIWQKLTEFDQYEMTTQTFAESFFPVDKLAQILMELETAEACFFDDVTLIWILDDAYPALLREIYEAPPILFCKGNIDLLQQQAIAIVGTRQMSEYGRKACMKIASELAENKLTIVSGMAIGIDSTAHRATLNKQGATIAVLGSGVNKVYPKKNELLAKEIVKEGLLLSEYLPDEEAKRWHFPERNRIISGLAIGTVIIEAAERSGSLITADIALEQNRQVFAVPGNIFIDTWQGTNYLIQEGAKLVMNSNNIIEEFIQIKP | not soluble
MGDDLDSLTDQLSSGFQVDPLALGEHPRYSQYKNLTKAAEQQAKRREETLERQKNGRFDTFMKLRNLAFDDVTSDEDDEQKIETTTAEKHTGKFKKYADKMMLSEWLVDIPESLSSDWTMVMAPVGKRTLVVASRGFTVAYNKGGREVSRFQSRLPGGNTRAKNQAWTILDCIYSNQTYYVLDLLSWNAHEYVESPYDFRQFMLKSKLEEAPELAKSTPGFRNIFSPIPSCPCSQDQMAELMKNEISFRLDGLLFYHNSVVYQPGQSPLVGWLKPWMLPEILNVPVPEKYKAESNGQSSSQFIESFNQKHKHQSKIDRSMEH | not soluble
MPLELWIVFNLFGRKSPRSNIKPARGPGETVREADLRYLQEWVSTHAVVEAFVEPETIVNEMSVVLVDITGEFTRRRIGGPKGIDVISSTLGVPVYDVEETGYPQRMREKIERDRILRKREEQRERREKLQRERGESQ | not soluble
